Laboratory results reported in patent publication US20120294860A1 (TORAY INDUSTRIES, published 2012).

T1: human CAPRIN-1 protein expressed on the surface of human cancer cells (human, UniProt Q14444 2-709)
T1 sequence: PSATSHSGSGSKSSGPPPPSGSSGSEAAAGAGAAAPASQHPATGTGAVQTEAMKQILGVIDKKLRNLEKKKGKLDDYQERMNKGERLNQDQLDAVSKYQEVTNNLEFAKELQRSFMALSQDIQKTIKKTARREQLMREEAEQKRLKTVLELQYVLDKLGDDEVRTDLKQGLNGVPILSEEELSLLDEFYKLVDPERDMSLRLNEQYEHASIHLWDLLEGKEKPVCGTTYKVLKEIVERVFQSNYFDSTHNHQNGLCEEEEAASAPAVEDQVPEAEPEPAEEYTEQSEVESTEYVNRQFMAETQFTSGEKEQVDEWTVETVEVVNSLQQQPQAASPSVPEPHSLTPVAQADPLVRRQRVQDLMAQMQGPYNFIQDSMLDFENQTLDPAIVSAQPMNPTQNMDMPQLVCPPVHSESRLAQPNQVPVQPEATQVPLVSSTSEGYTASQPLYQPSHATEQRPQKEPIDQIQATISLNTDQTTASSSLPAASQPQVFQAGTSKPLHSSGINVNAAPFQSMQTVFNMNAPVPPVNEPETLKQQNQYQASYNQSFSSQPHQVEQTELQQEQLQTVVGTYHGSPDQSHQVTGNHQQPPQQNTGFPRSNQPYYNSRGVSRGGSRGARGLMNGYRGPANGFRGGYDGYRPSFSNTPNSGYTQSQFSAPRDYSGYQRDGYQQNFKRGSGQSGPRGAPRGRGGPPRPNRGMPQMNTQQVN

B1: anti-CAPRIN-1 monoclonal antibody #7 (antibody, V domains shown)
VH: LQESGAELARPGASVKLSCKASGYTFTSYWMQWVKQRPGQGLEWIGAIYPGDGDTRYTQKFKGKATLTADKSSSTAYMQLSSLASEDSAVYYCARGEYGNYFAYWGQGTTVTVSS
VL: TSDASLGERVTITCKASQDINSYLSWFQQKPGKSPKTLIYRANRLVDGVPSRFSGSGSGQDYSLTISSLEYEDMGIYYCLQYDEFPLTFGGGTKLEIKQ
B2: anti-CAPRIN-1 monoclonal antibody #1 (antibody, V domains shown)
VH: EVQLHQFGAELVKPGASVKISCKASGYTFTDYNMDWVKQSHGKSLEWIGDINPNYDSTSYNQKFKGKATLTVDKSSSTAYMELRSLTSEDTAVYYCARSRSYDYEGFAYWGQGTLVTVSA
VL: DIQMTQSPASLSASVGETVTITCRASGNIHNYLAWYQQKQGKSPQLLVYNAKTLADGVPSRFSGSGSGTQYSLKINSLQPEDFGSYYCQHFWSTLTFGAGTKLELKR
B3: anti-CAPRIN-1 monoclonal antibody #4 (antibody, V domains shown)
VH: EVQLHQFGAELVKPGASVKISCKASGYTFTDYNMDWVKQSHGKSLEWIGDINPNYDSTSYNQKFKGKATLTVDKSSSTAYMELRSLTSEDTAVYYCARSRSYDYEGFAYWGQGTLVTVSA
VL: SGDRVSLSCRASQSISNYLHWYQQKSHESPRLLIKYASQSISGIPSRFSGSGSGTDFTLSINSVETEDFGMYFCQQSNSWPYTFGAGTKLEIKQ
B4: anti-CAPRIN-1 monoclonal antibody #3 (antibody, V domains shown)
VH: EVQLHQFGAELVKPGASVKISCKASGYTFTDYNMDWVKQSHGKSLEWIGDINPNYDSTSYNQKFKGKATLTVDKSSSTAYMELRSLTSEDTAVYYCARSRSYDYEGFAYWGQGTLVTVSA
VL: DIQLTQSPASLSASVGETVTITCRASGNIHNYLAWYQQKQGKSPQLLVYNAKTLADGVPSRFSGSGSGTQYSLKINSLQPEDFGSYYCQHFWSTLTFGGGTKLEIK

Biological target: T1, human CAPRIN-1 protein expressed on the …
Assay: cell-based or functional assay

Binder	ADCC activity against MDA-MB-157	CDC activity against MDA-MB-231V
B1	≥ 20%	≥ 30%
B2	≥ 20%	≥ 30%
B3	≥ 20%	≥ 30%
B4	≥ 20%	≥ 30%
